# Experimental data reported in patent US20040037775.
# Assays:
# [1] = system: T1, MTX-cIBR conjugate (methotrexate-cyclo-Leu Pro Arg Gly Gly Ser Val Leu Val Thr)
# T1 sequence: LPRGGSVLVT
# MTX-cIBL conjugate = system: T2, MTX-cIBL conjugate
# T2 sequence: QTSVSPSKVI
substance,measurement,setting,value
dihydrofolate reductase enzyme (DHFR),Km relative to MTX,[1],"approximately 4 and 15 fold times less than that of MTX, respectively"
same,Km relative to MTX,MTX-cIBL conjugate,"approximately 4 and 15 fold times less than that of MTX, respectively"
